Results on 2 molecules are retold here after publication PMC11417388, “Trypanosome mRNA recapping is triggered by hypermethylation originating from cap 4” (Nucleic Acids Research, 2024).

In one data set the target is T1, vvD1/D12 (Vaccinia virus WR, UniProt P04298).
T1 construct: gene OPG113

Substrate in the data set “purified protein”: Nc1ncnc2c1ncn2[C@@H]1O[C@H](COP(=O)(O)OP(=O)(O)OP(=O)(O)O)[C@@H](O)[C@H]1O
The data set can be described thus: purified protein. The data set is classed as biochemical, Trypanosoma brucei. The note with it: co-substrate 100 nM fully methylated cap 4 pRNA (p m6,2AmAmCm m3Um), 0.5 mM MgCl2, pH 8.5, 27 °C, labelled compound.

On to `C[S+](CC[C@H](N)C(=O)O)C[C@H]1O[C@@H](n2cnc3c(N)ncnc32)[C@H](O)[C@@H]1O` (stereo partly drawn) [AdoMet], for which the “cap methyltransferase assay on ppRNA substrates” value on vvD1/D12 was “cap methyltransferase activity was compared on ppAmAmCmUm and unmodified ppRNAs”.

B1: TbCe1 (Trypanosoma brucei brucei TREU927) (protein)
chain: MSATDVASELRSGAPEYVPTFLRCKQSENVTAFESPVVFLMFGCRGAGKSTQSTLLSKTYNLLYLSSGDIYKSGKQPFVELRKILNEHFGDGKERVYNGVVLDRFIANSEFEAFYVQTALRSVGLPVPFVFMLAIDQGLAAKRAEERGDNKGGNQRWRAVEQKAQAITANTVYAPIQCLKTIRVESDMTIDDVFNEIKTTIANQLPPDLFNLQLPREARREVEGTVLVEDYELYMELANDVHTVVGNLRGRRDSAPLSNVGAHLDKEYFSFANKRLRSQLTTMHVTLKADGLRFLVMKHKTRGYIGFPSAFTHCYELNDLFEGVEMAPKPYTELKKWMNDKSCELPADFLLDTEVVVHEKKPTLYIIDFIYFWGLDGRRMQFEQRLKVLREYFGDMKPQGQVIAMKDYVPINKIRTLVEEMKRRTELPVDGLIFQHNGSYRFGSDKFLIKWKPVHLCTVDFRLANGRVENGVWTFDLFVTDDFIEENGFREVAYPGATALIPASVVEENGLQNGMIIEMALSEKESVKKTSPNAPSEKTRWTFRNARNDKPSPNKYSIVTRICELMHVDLDELVSLCEKVPFYRNV
notes: expressed as His-Smt3 fusion in E. coli; tag removed by Ulp1; glycerol gradient purified
As for B1, in “purified protein”, the Km was 0.21 µM and the catalytic constant (kcat) came to 0.0383 s⁻¹.
